Measured values as given in patent US6600012.

Target: HLA.A2 on T2 mutant cells
Test: T2 cell HLA.A2 upregulation assay, flow cytometry with MA2.1

FLPSDYFPSV (modifications not checked) […, positive control peptide]
% Change in mean channel intensity: 428%
